Non-standard residues stand in square brackets, D forms with d. No end group written: not given here. Aun = NCCCCCCCCCCC(=O)O
T1: CXCR3 receptor (UniProt P49682 1-368, limits assumed)
T1 sequence (looked up): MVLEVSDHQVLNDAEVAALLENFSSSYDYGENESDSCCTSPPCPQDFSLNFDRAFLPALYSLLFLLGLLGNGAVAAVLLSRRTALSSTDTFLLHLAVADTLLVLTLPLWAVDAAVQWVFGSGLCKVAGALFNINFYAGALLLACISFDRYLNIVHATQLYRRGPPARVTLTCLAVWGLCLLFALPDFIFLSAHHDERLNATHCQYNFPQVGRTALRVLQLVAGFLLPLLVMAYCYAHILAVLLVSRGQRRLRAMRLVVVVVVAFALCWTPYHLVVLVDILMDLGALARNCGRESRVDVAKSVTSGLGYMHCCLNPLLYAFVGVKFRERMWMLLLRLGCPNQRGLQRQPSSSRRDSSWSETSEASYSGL


Target: T1, CXCR3 receptor
Experiment: cell-based or functional assay

Binder | calcium mobilization activity of CXCR-3/300-19 cells, dosage 1.2 µM | calcium mobilization activity of CXCR-3/300-19 cells, dosage 3.7 µM | calcium mobilization activity of CXCR-3/300-19 cells, dosage 11.1 µM | calcium mobilization activity of CXCR-3/300-19 cells, dosage 33.3 µM | calcium mobilization activity of CXCR-3/300-19 cells, dosage 100 µM
Ac-VPLSRTVRCTCISISN[Aun]LKAVSKEMSKRSP (cysteine pairing not given here) [Acetylated-IP-10-(1-16)-[linker]-IP-10-(66-78)] | 12.6 | 12.7 | 14.1 | 20 | 52.9
Ac-VPLSRTVRATFISISN[Aun]LKAVSKEMSKRSP [Acetylated-[Ala^9,Phe^11]-IP-10-(1-16)-[linker]-IP-10-(66-78)] | 15.2 | 13.8 | 15.4 | 20 | 3.1
VPLSRTVRSTSISIS[Aun]ESKAIENLLKAVSK [[Ser^9,Ser^11,Glu^63]-IP-10-(1-15)-[linker]-IP-10-(58-71)] | 18.8 | 18.5 | 17.2 | 18.9 | 46.6

Other lines, results leading:

calcium mobilization activity of CXCR-3/300-19 cells, dosage 1.2 µM | calcium mobilization activity of CXCR-3/300-19 cells, dosage 3.7 µM | calcium mobilization activity of CXCR-3/300-19 cells, dosage 11.1 µM | calcium mobilization activity of CXCR-3/300-19 cells, dosage 33.3 µM | calcium mobilization activity of CXCR-3/300-19 cells, dosage 100 µM | Binder
16 | 14 | 14.4 | 18.6 | 55.1 | VPLSRTPRCTCISIS[Aun]ESKAIKNLLKAVSK (cysteine pairing not given here) [[Pro^7]-IP-10-(1-15)-[linker]-IP-10-(58-71)]
17.4 | 15.4 | 12.5 | 13.3 | 3.4 | VPLSRTVRSTSISIS[Aun]ESKAIKNLLEAVSK [[Ser^9,Ser^11,Glu^67]-IP-10-(1-15)-[linker]-IP-10-(58-71)]

Reference: EP1882698A1 (Chemokine Therapeutics Corp., dated 2008)
